B1: Tuftelin-interacting protein 11 (Homo sapiens), Q9UBB9 (parent)
chain: MSLSHLYRDGEGRIDDDDDERENFEITDWDLQNEFNPNRQRHWQTKEEATYGVWAERDSDDERPSFGGKRARDYSAPVNFISAGLKKGAAEEAELEDSDDEEKPVKQDDFPKDFGPRKLKTGGNFKPSQKGFAGGTKSFMDFGSWERHTKGIGQKLLQKMGYVPGRGLGKNAQGIINPIEAKQRKGKGAVGAYGSERTTQSMQDFPVVDSEEEAEEEFQKELSQWRKDPSGSKKKPKYSYKTVEELKAKGRISKKLTAPQKELSQVKVIDMTGREQKVYYSYSQISHKHNVPDDGLPLQSQQLPQSGKEAKAPGFALPELEHNLQLLIDLTEQEIIQNDRQLQYERDMVVNLFHELEKMTEVLDHEERVISNLSKVLEMVEECERRMQPDCSNPLTLDECARIFETLQDKYYEEYRMSDRVDLAVAIVYPLMKEYFKEWDPLKDCTYGTEIISKWKSLLENDQLLSHGGQDLSADAFHRLIWEVWMPFVRNIVTQWQPRNCDPMVDFLDSWVHIIPVWILDNILDQLIFPKLQKEVENWNPLTDTVPIHSWIHPWLPLMQARLEPLYSPIRSKLSSALQKWHPSDSSAKLILQPWKDVFTPGSWEAFMVKNIVPKLGMCLGELVINPHQQHMDAFYWVIDWEGMISVSSLVGLLEKHFFPKWLQVLCSWLSNSPNYEEITKWYLGWKSMFSDQVLAHPSVKDKFNEALDIMNRAVSSNVGAYMQPGARENIAYLTHTERRKDFQYEAMQERREAENMAQRGIGVAASSVPMNFKDLIETKAEEHNIVFMPVIGKRHEGKQLYTFGRIVIYIDRGVVFVQGEKTWVPTSLQSLIDMAK
partner: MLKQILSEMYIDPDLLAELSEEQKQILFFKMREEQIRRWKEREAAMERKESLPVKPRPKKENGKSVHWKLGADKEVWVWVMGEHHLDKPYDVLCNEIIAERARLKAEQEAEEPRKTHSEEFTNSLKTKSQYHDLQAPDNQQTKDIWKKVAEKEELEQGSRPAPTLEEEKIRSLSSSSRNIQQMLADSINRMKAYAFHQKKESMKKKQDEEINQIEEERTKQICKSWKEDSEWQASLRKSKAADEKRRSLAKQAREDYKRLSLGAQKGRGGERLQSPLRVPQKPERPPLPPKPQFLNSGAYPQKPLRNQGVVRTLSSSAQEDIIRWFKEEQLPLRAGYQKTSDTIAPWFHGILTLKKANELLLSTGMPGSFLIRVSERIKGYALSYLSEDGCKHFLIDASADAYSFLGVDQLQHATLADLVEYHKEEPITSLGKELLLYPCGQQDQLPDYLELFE
B2: Histone-lysine N-methyltransferase SMYD1 (Homo sapiens), Q8NB12 (parent)
chain: MTIGRMENVEVFTAEGKGRGLKATKEFWAADIIFAERAYSAVVFDSLVNFVCHTCFKRQEKLHRCGQCKFAHYCDRTCQKDAWLNHKNECSAIKRYGKVPNENIRLAARIMWRVEREGTGLTEGCLVSVDDLQNHVEHFGEEEQKDLRVDVDTFLQYWPPQSQQFSMQYISHIFGVINCNGFTLSDQRGLQAVGVGIFPNLGLVNHDCWPNCTVIFNNGNHEAVKSMFHTQMRIELRALGKISEGEELTVSYIDFLNVSEERKRQLKKQYYFDCTCEHCQKKLKDDLFLGVKDNPKPSQEVVKEMIQFSKDTLEKIDKARSEGLYHEVVKLCRECLEKQEPVFADTNIYMLRMLSIVSEVLSYLQAFEEASFYARRMVDGYMKLYHPNNAQLGMAVMRAGLTNWHAGNIEVGHGMICKAYAILLVTHGPSHPITKDLEAMRVQTEMELRMFRQNEFMYYKMREAALNNQPMQVMAEPSNEPSPALFHKKQ
partner: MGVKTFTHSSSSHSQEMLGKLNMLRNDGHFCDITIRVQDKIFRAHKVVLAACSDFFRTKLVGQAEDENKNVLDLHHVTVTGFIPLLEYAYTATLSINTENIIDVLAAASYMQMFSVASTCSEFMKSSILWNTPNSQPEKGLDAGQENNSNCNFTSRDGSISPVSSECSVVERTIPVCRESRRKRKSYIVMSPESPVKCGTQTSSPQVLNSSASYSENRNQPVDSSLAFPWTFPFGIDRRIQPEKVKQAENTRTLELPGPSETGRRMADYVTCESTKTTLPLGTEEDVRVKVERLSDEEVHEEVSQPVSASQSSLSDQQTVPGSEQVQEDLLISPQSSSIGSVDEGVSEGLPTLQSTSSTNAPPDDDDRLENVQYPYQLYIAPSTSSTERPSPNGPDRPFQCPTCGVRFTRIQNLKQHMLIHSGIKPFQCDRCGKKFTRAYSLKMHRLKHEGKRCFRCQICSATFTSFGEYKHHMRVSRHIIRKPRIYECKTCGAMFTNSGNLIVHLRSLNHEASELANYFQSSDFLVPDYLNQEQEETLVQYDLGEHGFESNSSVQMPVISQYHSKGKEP
B3: Lipopolysaccharide-induced tumor necrosis factor-alpha factor (Homo sapiens), Q99732 (parent)
chain: MSVPGPYQAATGPSSAPSAPPSYEETVAVNSYYPTPPAPMPGPTTGLVTGPDGKGMNPPSYYTQPAPIPNNNPITVQTVYVQHPITFLDRPIQMCCPSCNKMIVSQLSYNAGALTWLSCGSLCLLGCIAGCCFIPFCVDALQDVDHYCPNCRALLGTYKRL
B4: Peroxisomal bifunctional enzyme (Homo sapiens), Q08426 (parent)
chain: MAEYTRLHNALALIRLRNPPVNAISTTLLRDIKEGLQKAVIDHTIKAIVICGAEGKFSAGADIRGFSAPRTFGLTLGHVVDEIQRNEKPVVAAIQGMAFGGGLELALGCHYRIAHAEAQVGLPEVTLGLLPGARGTQLLPRLTGVPAALDLITSGRRILADEALKLGILDKVVNSDPVEEAIRFAQRVSDQPLESRRLCNKPIQSLPNMDSIFSEALLKMRRQHPGCLAQEACVRAVQAAVQYPYEVGIKKEEELFLYLLQSGQARALQYAFFAERKANKWSTPSGASWKTASARPVSSVGVVGLGTMGRGIVISFARARIPVIAVDSDKNQLATANKMITSVLEKEASKMQQSGHPWSGPKPRLTSSVKELGGVDLVIEAVFEEMSLKKQVFAELSAVCKPEAFLCTNTSALDVDEIASSTDRPHLVIGTHFFSPAHVMKLLEVIPSQYSSPTTIATVMNLSKKIKKIGVVVGNCFGFVGNRMLNPYYNQAYFLLEEGSKPEEVDQVLEEFGFKMGPFRVSDLAGLDVGWKSRKGQGLTGPTLLPGTPARKRGNRRYCPIPDVLCELGRFGQKTGKGWYQYDKPLGRIHKPDPWLSKFLSRYRKTHHIEPRTISQDEILERCLYSLINEAFRILGEGIAASPEHIDVVYLHGYGWPRHKGGPMFYASTVGLPTVLEKLQKYYRQNPDIPQLEPSDYLKKLASQGNPPLKEWQSLAGSPSSKL
partner: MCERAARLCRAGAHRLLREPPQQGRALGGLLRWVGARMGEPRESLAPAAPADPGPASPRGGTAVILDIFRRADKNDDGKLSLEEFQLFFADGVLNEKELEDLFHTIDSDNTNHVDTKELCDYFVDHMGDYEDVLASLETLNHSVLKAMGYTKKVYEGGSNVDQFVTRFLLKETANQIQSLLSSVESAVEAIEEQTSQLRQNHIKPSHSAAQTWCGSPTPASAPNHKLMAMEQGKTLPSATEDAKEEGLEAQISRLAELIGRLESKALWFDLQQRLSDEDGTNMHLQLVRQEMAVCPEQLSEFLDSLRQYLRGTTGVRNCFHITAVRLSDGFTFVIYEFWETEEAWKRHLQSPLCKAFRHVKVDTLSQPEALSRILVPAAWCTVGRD

Variants of: B1
Conditions: with sh24a_human SH2D4A

Row | effect of a mutation on the interaction | Variant
1 | with no effect | S688L

Variants of: B2
Conditions: with zbt44_human ZBTB44, Q8NCP5

Row | effect of a mutation on the interaction | Variant
2 | with no effect | R333Q
3 | with no effect | H427L
4 | with no effect | Q164P

Variants of: B3
Conditions: with bag3_human BAG3, O95817
bag3_human BAG3, O95817, sequence (O95817 whole entry): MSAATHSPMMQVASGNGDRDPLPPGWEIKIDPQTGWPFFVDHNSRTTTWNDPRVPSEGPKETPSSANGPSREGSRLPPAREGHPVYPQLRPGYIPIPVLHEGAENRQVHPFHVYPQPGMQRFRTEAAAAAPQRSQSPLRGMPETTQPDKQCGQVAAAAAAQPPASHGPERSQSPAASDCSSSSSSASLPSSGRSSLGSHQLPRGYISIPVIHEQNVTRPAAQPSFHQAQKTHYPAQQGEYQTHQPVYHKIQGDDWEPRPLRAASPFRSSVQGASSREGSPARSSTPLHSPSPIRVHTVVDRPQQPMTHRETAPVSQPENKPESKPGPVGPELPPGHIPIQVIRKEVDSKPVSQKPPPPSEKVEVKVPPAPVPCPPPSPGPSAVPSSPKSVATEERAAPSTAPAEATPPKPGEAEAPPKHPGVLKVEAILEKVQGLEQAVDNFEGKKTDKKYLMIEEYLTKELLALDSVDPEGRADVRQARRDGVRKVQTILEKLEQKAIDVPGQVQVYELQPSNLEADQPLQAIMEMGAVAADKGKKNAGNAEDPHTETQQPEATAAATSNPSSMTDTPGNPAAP

Row | effect of a mutation on the interaction | Variant
5 | with no effect | C137Y
6 | with no effect | I92V

Variants of: B3
Conditions: with reep6_human REEP6, Q96HR9
reep6_human REEP6, Q96HR9, sequence (Q96HR9 whole entry): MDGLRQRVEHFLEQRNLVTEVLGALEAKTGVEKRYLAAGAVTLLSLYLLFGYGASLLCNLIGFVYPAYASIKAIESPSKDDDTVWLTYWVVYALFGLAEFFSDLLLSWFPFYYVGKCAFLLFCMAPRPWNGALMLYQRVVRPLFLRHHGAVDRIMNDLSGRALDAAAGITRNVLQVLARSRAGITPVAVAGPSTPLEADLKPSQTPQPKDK

Row | effect of a mutation on the interaction | Variant
7 | disrupting interaction strength | C137Y

Variants of: B3
Conditions: with stam2_human STAM2, O75886

Row | effect of a mutation on the interaction | Variant
8 | with no effect | C137Y

Variants of: B3
Conditions: with hgs_human HGS

Row | effect of a mutation on the interaction | Variant
9 | with no effect | C137Y

Variants of: B4
Conditions: with neca2_human NECAB2, Q7Z6G3

Row | effect of a mutation on the interaction | Variant
10 | disrupting interaction strength | R483Q
11 | with no effect | S703F
12 | disrupting interaction strength | I646T
13 | disrupting interaction strength | L715S

— IntAct's records for PubMed 31515488
